Measurements taken from article PMC6345439, “INDETERMINATE-DOMAIN 4 (IDD4) coordinates immune responses with plant-growth in Arabidopsis thaliana”.

T1: MBP-IDD4-DD (phospho-mimic, truncated) (Arabidopsis thaliana, UniProt Q8GYC1 20-219, S73D;T130D)
T1 sequence: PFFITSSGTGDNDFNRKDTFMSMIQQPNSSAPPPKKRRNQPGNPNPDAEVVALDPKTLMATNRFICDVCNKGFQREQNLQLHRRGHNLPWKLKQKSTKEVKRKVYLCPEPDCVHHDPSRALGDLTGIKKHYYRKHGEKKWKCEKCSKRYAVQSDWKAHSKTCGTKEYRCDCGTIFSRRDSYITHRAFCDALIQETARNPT


Experiments:
[1] = target: T1, MBP-IDD4-DD (phospho-mimic, truncated); assay: EMSA; LightShift Chemiluminescent EMSA kit instructions; 20 fmol biotinylated DNA, 1 ug protein; buffer, salt, pH and temperature not stated; conditions: protein: recombinant; tags: MBP; label: 3' biotin; blunt
[2] = target: T1, MBP-IDD4-DD (phospho-mimic, truncated); assay: competition; unlabeled competitor up to 0.5 uM (100x excess) against N1; LightShift Chemiluminescent EMSA kit instructions; 20 fmol biotinylated DNA, 1 ug protein; buffer, salt, pH and temperature not stated; conditions: protein: recombinant; tags: MBP; blunt

Row | Binder | binding result [1] | binding result [2]
1 | SAGT1 promoter ID1 probe (395s/395as) (dsDNA) DNA 1: ACATGGTAGACAAAATAATGAAGCCAAAATTAATA DNA 2: TATTAATTTTGGCTTCATTATTTTGTCTACCATGT | binds | 
2 | SAGT1 promoter ID1 competitor, unlabeled (spe) (dsDNA) DNA 1: ACATGGTAGACAAAATAATGAAGCCAAAATTAATA DNA 2: TATTAATTTTGGCTTCATTATTTTGTCTACCATGT |  | binds
